Assay results: patent US20100297120A1

Target: epidermal growth factor receptor (EGFR) on EGFR positive U87 cells (UniProt P00533)
Test: FACS, saturation binding to EGFR on cells

Row | Substance | Bmax (RFU) | Half saturation
1 | EGFR antibody (monoclonal 528 available from ATCC) | 23.6 RFU | 1.7 nM
2 | Anti-EGFR-Angiopep-2 conjugate (EGFR antibody monoclonal 528 cross-linked to Angiopep-2 with SATA) | – | 1.8 nM
